According to PMC10354024, “Conformational trajectory of allosteric gating of the human cone photoreceptor cyclic nucleotide-gated channel” (Nature Communications, 2023):

Legend:
[1] = target: T1, human CNGB3, full-length (human, UniProt Q9NQW8-1 1-809, N339 glycosylation site); assay: cryo-EM structure; full-length CNGA3/CNGB3 co-expressed and co-purified, in 0.02% GDN, 50 mM HEPES-Na pH 8.58, 150 mM NaCl, 0.1 mM TCEP, 2 mM EGTA, 2 mM cGMP; three states (closed, intermediate 1, intermediate 2), C1 symmetry; details: both partners purified
T1 construct: human cone photoreceptor cyclic nucleotide-gated channel subunit CNGB3, NCBI NP_061971.3, full length; modelled residues L206 to R643; One copy of this subunit stands with three CNGA3 in the channel tetramer; Cloned in the vector pEZT-BM (Addgene #74099); source: HEK 293S GnTi- cells (BacMam), co-infected with CNGA3 virus, purified (amylose resin, StrepTrap, Superose 6) in GDN
T1 sequence (looked up): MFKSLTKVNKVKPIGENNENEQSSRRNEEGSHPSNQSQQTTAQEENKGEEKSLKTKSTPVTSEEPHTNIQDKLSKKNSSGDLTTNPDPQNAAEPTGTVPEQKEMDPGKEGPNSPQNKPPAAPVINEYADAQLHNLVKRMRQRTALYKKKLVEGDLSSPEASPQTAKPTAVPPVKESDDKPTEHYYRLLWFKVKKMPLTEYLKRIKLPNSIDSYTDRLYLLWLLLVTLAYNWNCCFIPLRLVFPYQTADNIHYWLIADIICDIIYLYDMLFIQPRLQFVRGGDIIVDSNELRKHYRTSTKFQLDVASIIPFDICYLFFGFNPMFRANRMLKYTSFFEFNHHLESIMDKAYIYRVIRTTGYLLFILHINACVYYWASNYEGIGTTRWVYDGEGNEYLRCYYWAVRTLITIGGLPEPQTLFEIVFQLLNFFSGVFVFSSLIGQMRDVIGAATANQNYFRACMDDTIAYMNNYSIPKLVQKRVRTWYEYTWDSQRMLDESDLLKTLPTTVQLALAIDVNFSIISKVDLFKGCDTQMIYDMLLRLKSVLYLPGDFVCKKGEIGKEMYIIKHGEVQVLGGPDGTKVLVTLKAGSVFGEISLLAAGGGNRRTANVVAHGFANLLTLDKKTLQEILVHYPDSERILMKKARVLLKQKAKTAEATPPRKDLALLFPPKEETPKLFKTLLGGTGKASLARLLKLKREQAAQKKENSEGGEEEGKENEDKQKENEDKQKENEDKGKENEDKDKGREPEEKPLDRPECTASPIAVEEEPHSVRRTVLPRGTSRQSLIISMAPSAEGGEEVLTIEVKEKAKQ

[2] = target: the molecule itself; assay: as above
[3] = target: T2, truncated human CNGB3 (amino acids 79-809) (human, UniProt Q9NQW8-1 79-809); assay: cryo-EM structure; truncated CNGA3/CNGB3 co-expressed (P2A) and co-purified, in POPG/POPC (1:1) nanodiscs with MSP2N2, 50 mM HEPES-Na pH 8.58, 150 mM NaCl, 0.1 mM TCEP, 2 mM EGTA, 4 mM cGMP; five states (closed, intermediate 1, intermediate 2, pre-open, open), C1 symmetry; details: both partners purified
T2 construct: human CNGB3, NCBI NP_061971.3, amino acids 79-809 (amino acids 1-78 removed); Expressed as trunCNGA3-P2A-trunCNGB3 from one pEZT-BM vector; a residue of the P2A linker may precede the FLAG tag (surmised); also called truncated CNGB3; trunCNGB3
T2 sequence (looked up): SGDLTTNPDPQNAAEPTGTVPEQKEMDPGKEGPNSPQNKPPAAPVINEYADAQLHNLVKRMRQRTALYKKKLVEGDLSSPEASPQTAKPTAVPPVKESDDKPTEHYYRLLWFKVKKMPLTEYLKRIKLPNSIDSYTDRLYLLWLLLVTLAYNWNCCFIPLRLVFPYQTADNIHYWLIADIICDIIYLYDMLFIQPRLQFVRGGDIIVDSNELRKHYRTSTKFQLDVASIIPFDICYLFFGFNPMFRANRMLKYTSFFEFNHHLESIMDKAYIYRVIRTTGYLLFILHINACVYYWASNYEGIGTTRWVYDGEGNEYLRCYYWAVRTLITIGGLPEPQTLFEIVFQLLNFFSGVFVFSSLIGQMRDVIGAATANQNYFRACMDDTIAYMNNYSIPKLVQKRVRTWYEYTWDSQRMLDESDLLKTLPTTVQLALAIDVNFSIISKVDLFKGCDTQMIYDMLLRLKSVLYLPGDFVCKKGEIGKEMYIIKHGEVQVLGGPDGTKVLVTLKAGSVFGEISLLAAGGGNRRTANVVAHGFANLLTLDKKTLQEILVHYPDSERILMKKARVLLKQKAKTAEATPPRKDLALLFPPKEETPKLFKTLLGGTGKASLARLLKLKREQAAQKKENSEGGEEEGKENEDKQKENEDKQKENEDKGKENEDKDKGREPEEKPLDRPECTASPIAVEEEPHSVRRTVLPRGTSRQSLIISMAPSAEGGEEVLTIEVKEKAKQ

[4] = target: the molecule itself; assay: as above

B1: human CNGA3, full-length (natural protein, UniProt Q16281-1 1-694, looked up)
chain: MAKINTQYSHPSRTHLKVKTSDRDLNRAENGLSRAHSSSEETSSVLQPGIAMETRGLADSGQGSFTGQGIARLSRLIFLLRRWAARHVHHQDQGPDSFPDRFRGAELKEVSSQESNAQANVGSQEPADRGRSAWPLAKCNTNTSNNTEEEKKTKKKDAIVVDPSSNLYYRWLTAIALPVFYNWYLLICRACFDELQSEYLMLWLVLDYSADVLYVLDVLVRARTGFLEQGLMVSDTNRLWQHYKTTTQFKLDVLSLVPTDLAYLKVGTNYPEVRFNRLLKFSRLFEFFDRTETRTNYPNMFRIGNLVLYILIIIHWNACIYFAISKFIGFGTDSWVYPNISIPEHGRLSRKYIYSLYWSTLTLTTIGETPPPVKDEEYLFVVVDFLVGVLIFATIVGNVGSMISNMNASRAEFQAKIDSIKQYMQFRKVTKDLETRVIRWFDYLWANKKTVDEKEVLKSLPDKLKAEIAINVHLDTLKKVRIFQDCEAGLLVELVLKLRPTVFSPGDYICKKGDIGKEMYIINEGKLAVVADDGVTQFVVLSDGSYFGEISILNIKGSKSGNRRTANIRSIGYSDLFCLSKDDLMEALTEYPEAKKALEEKGRQILMKDNLIDEELARAGADPKDLEEKVEQLGSSLDTLQTRFARLLAEYNATQMKMKQRLSQLESQVKGGGDKPLADGEVPGDATKTEDKQQ
notes: human cone photoreceptor cyclic nucleotide-gated channel subunit CNGA3, NCBI NP_001289.1, full length; modelled residues about A158-I159 to D609-L614; Three copies of this subunit stand with one CNGB3 in the channel tetramer; MBP was cut off with P3C protease; residues of the P3C site may remain at the N-terminus; Cloned in the vector pEZT-BM (Addgene #74099); also called CNGA3L; A3L; source: HEK …
- stoichiometry N [1]: 3 A3 per B3
- binding result [2]: binds

B2: truncated human CNGA3 (amino acids 152-694) (domain or fragment, UniProt Q16281-1 152-694, looked up)
chain: KTKKKDAIVVDPSSNLYYRWLTAIALPVFYNWYLLICRACFDELQSEYLMLWLVLDYSADVLYVLDVLVRARTGFLEQGLMVSDTNRLWQHYKTTTQFKLDVLSLVPTDLAYLKVGTNYPEVRFNRLLKFSRLFEFFDRTETRTNYPNMFRIGNLVLYILIIIHWNACIYFAISKFIGFGTDSWVYPNISIPEHGRLSRKYIYSLYWSTLTLTTIGETPPPVKDEEYLFVVVDFLVGVLIFATIVGNVGSMISNMNASRAEFQAKIDSIKQYMQFRKVTKDLETRVIRWFDYLWANKKTVDEKEVLKSLPDKLKAEIAINVHLDTLKKVRIFQDCEAGLLVELVLKLRPTVFSPGDYICKKGDIGKEMYIINEGKLAVVADDGVTQFVVLSDGSYFGEISILNIKGSKSGNRRTANIRSIGYSDLFCLSKDDLMEALTEYPEAKKALEEKGRQILMKDNLIDEELARAGADPKDLEEKVEQLGSSLDTLQTRFARLLAEYNATQMKMKQRLSQLESQVKGGGDKPLADGEVPGDATKTEDKQQ
notes: human CNGA3, NCBI NP_001289.1, amino acids 152-694 (amino acids 1-151 removed); Expressed as trunCNGA3-P2A-trunCNGB3 from one pEZT-BM vector; also called truncated CNGA3; trunCNGA3
- binding result [3]: binds
- binding result [4]: binds
